Reference: PMC9352680, “A comprehensive thermodynamic model for RNA binding by the Saccharomyces cerevisiae Pumilio protein PUF4”

T1: PUF4 RNA-binding domain (Saccharomyces cerevisiae, UniProt P25339 537-888)
T1 sequence: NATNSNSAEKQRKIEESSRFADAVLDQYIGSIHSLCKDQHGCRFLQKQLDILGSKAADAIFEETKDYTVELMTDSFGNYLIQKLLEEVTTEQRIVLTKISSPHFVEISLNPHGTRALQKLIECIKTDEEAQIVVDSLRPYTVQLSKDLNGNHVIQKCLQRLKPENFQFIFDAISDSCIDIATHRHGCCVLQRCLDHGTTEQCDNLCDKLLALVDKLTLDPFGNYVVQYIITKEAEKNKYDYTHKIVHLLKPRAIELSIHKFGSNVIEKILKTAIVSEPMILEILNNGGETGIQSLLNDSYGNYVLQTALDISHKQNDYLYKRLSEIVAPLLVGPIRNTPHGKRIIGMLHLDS

B1: Ib_S2_P5E.1_K5.1_C5.1_H5.1_[A4T]_A5.1_[T6A]_F5.1_T5.1 (ssRNA)
RNA: UUUGAUUAAUAUGAUAUCGUUCUUUCUUGUUUAAUUAUUCUUUCUCGAUAUCAUAUUAAUCUUU
B2: Ib_S2_P5E.1_K5.1_C5.1_H5.1_[A4G]_A5.1_[A7T]_F5.1_T5.1 (ssRNA)
RNA: UUUGAUUAAUAUGAUAUCGUUCUUUCUUGUGUUUUUAUUCUUUCUCGAUAUCAUAUUAAUCUUU
B3: Ib_S2_P5E.1_K5.1_C5.1_H5.1_[A4C]_A5.1_[A7C]_F5.1_T5.1 (ssRNA)
RNA: UUUGAUUAAUAUGAUAUCGUUCUUUCUUGUCUUCUUAUUCUUUCUCGAUAUCAUAUUAAUCUUU
B4: Ib_S2_P5E.1_K5.1_C5.1_H5.1_[A4C]_A5.1_[A7T]_F5.1_T5.1 (ssRNA)
RNA: UUUGAUUAAUAUGAUAUCGUUCUUUCUUGUCUUUUUAUUCUUUCUCGAUAUCAUAUUAAUCUUU
B5: Ib_S2_P5E.1_K5.1_C5.1_H5.1_A5.1_[T5C]_[T6A]_F5.1_T5.1 (ssRNA)
RNA: UUUGAUUAAUAUGAUAUCGUUCUUUCUUGUACAAUUAUUCUUUCUCGAUAUCAUAUUAAUCUUU
B6: Ib_S2_P5E.1_K5.1_C5.1_H5.1_A5.1_[T5G]_[A7G]_F5.1_T5.1 (ssRNA)
RNA: UUUGAUUAAUAUGAUAUCGUUCUUUCUUGUAGUGUUAUUCUUUCUCGAUAUCAUAUUAAUCUUU
B7: Ib_S2_P5E.1_K5.1_C5.1_H5.1_A5.1_[T5G]_[A7C]_F5.1_T5.1 (ssRNA)
RNA: UUUGAUUAAUAUGAUAUCGUUCUUUCUUGUAGUCUUAUUCUUUCUCGAUAUCAUAUUAAUCUUU
B8: Ib_S2_P5E.1_K5.1_C5.1_H5.1_A5.1_[T5C]_[A7C]_F5.1_T5.1 (ssRNA)
RNA: UUUGAUUAAUAUGAUAUCGUUCUUUCUUGUACUCUUAUUCUUUCUCGAUAUCAUAUUAAUCUUU
B9: Ia_S2_P5E.1_K5.1_C5.1_H5.1_[G2A]_A5.1_F5.1_T5.1 (ssRNA)
RNA: UUUGAUUAAUAUGAUAUCGUUCUUUCUUAUAUUAUUAUUCUUUCUCGAUAUCAUAUUAAUCUUU
B10: Ib_S2_P5E.1_K5.1_C5.1_H5.1_A5.1_[T5C]_[A7T]_F5.1_T5.1 (ssRNA)
RNA: UUUGAUUAAUAUGAUAUCGUUCUUUCUUGUACUUUUAUUCUUUCUCGAUAUCAUAUUAAUCUUU
B11: Ic_S2_P5E.1_K5.1_C5.1_H5.1_A5.1_[T5A]_[A7G]_F5.1_T5.1 (ssRNA)
RNA: UUUGAUUAAUAUGAUAUCGUUCUUUCUUGUAAUGUUAUUCUUUCUCGAUAUCAUAUUAAUCUUU
B12: Ic_S2_P5E.1_K5.1_C5.1_H5.1_A5.1_[T6G]_[A7C]_F5.1_T5.1 (ssRNA)
RNA: UUUGAUUAAUAUGAUAUCGUUCUUUCUUGUAUGCUUAUUCUUUCUCGAUAUCAUAUUAAUCUUU
B13: Ib_S2_P5E.1_K5.1_C5.1_H5.1_A5.1_[T6G]_[A7T]_F5.1_T5.1 (ssRNA)
RNA: UUUGAUUAAUAUGAUAUCGUUCUUUCUUGUAUGUUUAUUCUUUCUCGAUAUCAUAUUAAUCUUU
B14: Ib_S3_P3E.1_K3.1_C3.1_H3.1_[T1C]_A3.1_F3.1_[T7G]_T3.1 (ssRNA)
RNA: ACAAACCGUAUAGAACAAAC
B15: Ib_S3_P3E.1_K3.1_C3.1_H3.1_[T1A]_A3.1_F3.1_[T7A]_T3.1 (ssRNA)
RNA: ACAAACAGUAUAAAACAAAC
B16: Ib_S3_P3E.1_K3.1_C3.1_H3.1_[T3C]_A3.1_F3.1_[T7A]_T3.1 (ssRNA)
RNA: ACAAACUGCAUAAAACAAAC
B17: Ib_S3_P3E.1_K3.1_C3.1_H3.1_[A4C]_A3.1_F3.1_[T7G]_T3.1 (ssRNA)
RNA: ACAAACUGUCUAGAACAAAC
B18: Ib_S3_P3E.1_K3.1_C3.1_H3.1_[A4C]_A3.1_F3.1_[T7C]_T3.1 (ssRNA)
RNA: ACAAACUGUCUACAACAAAC
B19: Ib_S3_P3E.1_K3.1_C3.1_H3.1_[A4C]_A3.1_F3.1_[T7A]_T3.1 (ssRNA)
RNA: ACAAACUGUCUAAAACAAAC
B20: Ia_S2_P5E.1_K5.1_C5.1_H5.1_[A4G]_A5.1_F5.1_T5.1 (ssRNA)
RNA: UUUGAUUAAUAUGAUAUCGUUCUUUCUUGUGUUAUUAUUCUUUCUCGAUAUCAUAUUAAUCUUU
B21: Ib_S3_P3E.1_K3.1_C3.1_H3.1_[T1C]_A3.1_F3.1_[A8T]_T3.1 (ssRNA)
RNA: ACAAACCGUAUAUUACAAAC
B22: Ib_S3_P3E.1_K3.1_C3.1_H3.1_[G2C]_A3.1_F3.1_[A8T]_T3.1 (ssRNA)
RNA: ACAAACUCUAUAUUACAAAC
B23: Ib_S3_P3E.1_K3.1_C3.1_H3.1_[G2T]_A3.1_F3.1_[A8T]_T3.1 (ssRNA)
RNA: ACAAACUUUAUAUUACAAAC
B24: Ib_S3_P3E.1_K3.1_C3.1_H3.1_[T3C]_A3.1_F3.1_[A8G]_T3.1 (ssRNA)
RNA: ACAAACUGCAUAUGACAAAC
B25: Ib_S3_P3E.1_K3.1_C3.1_H3.1_[T3C]_A3.1_F3.1_[A8T]_T3.1 (ssRNA)
RNA: ACAAACUGCAUAUUACAAAC
B26: Ib_S3_P3E.1_K3.1_C3.1_H3.1_[A4C]_A3.1_F3.1_[A8T]_T3.1 (ssRNA)
RNA: ACAAACUGUCUAUUACAAAC
B27: Ib_S3_P3E.1_K3.1_C3.1_H3.1_[T1C]_[G2C]_A3.1_F3.1_T3.1 (ssRNA)
RNA: ACAAACCCUAUAUAACAAAC
B28: Ib_S3_P3E.1_K3.1_C3.1_H3.1_[T1C]_[G2T]_A3.1_F3.1_T3.1 (ssRNA)
RNA: ACAAACCUUAUAUAACAAAC
B29: Ib_S3_P3E.1_K3.1_C3.1_H3.1_[T1C]_[A4C]_A3.1_F3.1_T3.1 (ssRNA)
RNA: ACAAACCGUCUAUAACAAAC
B30: Ib_S3_P3E.1_K3.1_C3.1_H3.1_[T3C]_[A4G]_A3.1_F3.1_T3.1 (ssRNA)
RNA: ACAAACUGCGUAUAACAAAC
B31: Ia_S2_P5E.1_K5.1_C5.1_H5.1_[A4T]_A5.1_F5.1_T5.1 (ssRNA)
RNA: UUUGAUUAAUAUGAUAUCGUUCUUUCUUGUUUUAUUAUUCUUUCUCGAUAUCAUAUUAAUCUUU
B32: Ib_S3_P3E.1_K3.1_C3.1_H3.1_[T3C]_[A4T]_A3.1_F3.1_T3.1 (ssRNA)
RNA: ACAAACUGCUUAUAACAAAC
B33: Ib_S3_P3E.1_K3.1_C3.1_H3.1_[T3A]_[A4G]_A3.1_F3.1_T3.1 (ssRNA)
RNA: ACAAACUGAGUAUAACAAAC
B34: Ib_S3_P3E.1_K3.1_C3.1_H3.1_[T1G]_A3.1_[T5C]_F3.1_T3.1 (ssRNA)
RNA: ACAAACGGUACAUAACAAAC
B35: Ib_S3_P3E.1_K3.1_C3.1_H3.1_[T1C]_A3.1_[T5A]_F3.1_T3.1 (ssRNA)
RNA: ACAAACCGUAAAUAACAAAC
B36: Ib_S3_P3E.1_K3.1_C3.1_H3.1_[T1A]_A3.1_[T5G]_F3.1_T3.1 (ssRNA)
RNA: ACAAACAGUAGAUAACAAAC
B37: Ib_S3_P3E.1_K3.1_C3.1_H3.1_[T1A]_A3.1_[T5C]_F3.1_T3.1 (ssRNA)
RNA: ACAAACAGUACAUAACAAAC
B38: Ib_S3_P3E.1_K3.1_C3.1_H3.1_[T1G]_A3.1_[A6C]_F3.1_T3.1 (ssRNA)
RNA: ACAAACGGUAUCUAACAAAC
B39: Ib_S3_P3E.1_K3.1_C3.1_H3.1_[T1A]_A3.1_[A6T]_F3.1_T3.1 (ssRNA)
RNA: ACAAACAGUAUUUAACAAAC
B40: Ib_S3_P3E.1_K3.1_C3.1_H3.1_[G2C]_A3.1_[T5G]_F3.1_T3.1 (ssRNA)
RNA: ACAAACUCUAGAUAACAAAC
B41: Ib_S3_P3E.1_K3.1_C3.1_H3.1_[G2C]_A3.1_[T5C]_F3.1_T3.1 (ssRNA)
RNA: ACAAACUCUACAUAACAAAC
B42: Ia_S2_P5E.1_K5.1_C5.1_H5.1_A5.1_[T5G]_F5.1_T5.1 (ssRNA)
RNA: UUUGAUUAAUAUGAUAUCGUUCUUUCUUGUAGUAUUAUUCUUUCUCGAUAUCAUAUUAAUCUUU
B43: Ib_S3_P3E.1_K3.1_C3.1_H3.1_[G2T]_A3.1_[T5G]_F3.1_T3.1 (ssRNA)
RNA: ACAAACUUUAGAUAACAAAC
B44: Ib_S3_P3E.1_K3.1_C3.1_H3.1_[G2T]_A3.1_[A6T]_F3.1_T3.1 (ssRNA)
RNA: ACAAACUUUAUUUAACAAAC

Biological target: T1, PUF4 RNA-binding domain
Test: Mg; RNA-MaP; 20 mM Na-HEPES pH 7.4, 30 mM KOAc, 0.75 mM MgCl2, 0.1% Tween-20, 5% glycerol, 0.1 mg/mL BSA, 2 mM DTT; 25 C; 0.0125-409.6 nM protein
Details: tags: N-His6-TEV cleaved; C-SNAP kept, Cy3B-labelled; label: tethered on chip by stalled RNA polymerase

| Binder | Kd |
| --- | --- |
| B1 | 28.9 nM |
| B2 | 10.3 nM |
| B3 | 94.3 nM |
| B4 | 24.4 nM |
| B5 | 1.95 nM |
| B6 | 9.14 nM |
| B7 | 9.58 nM |
| B8 | 2.13 nM |
| B9 | 267 nM |
| B10 | 1.36 nM |
| B11 | 13.1 nM |
| B12 | 6.06 nM |
| B13 | 6.35 nM |
| B14 | > 2300 nM |
| B15 | > 2300 nM |
| B16 | > 2300 nM |
| B17 | > 2300 nM |
| B18 | > 2300 nM |
| B19 | > 2300 nM |
| B20 | 12.9 nM |
| B21 | 78.5 nM |
| B22 | > 2300 nM |

| Binder | Kd |
| --- | --- |
| B23 | 704 nM |
| B24 | > 2300 nM |
| B25 | 98.9 nM |
| B26 | 116 nM |
| B27 | > 2300 nM |
| B28 | > 2300 nM |
| B29 | > 2300 nM |
| B30 | > 2300 nM |
| B31 | 11.5 nM |
| B32 | > 2300 nM |
| B33 | > 2300 nM |
| B34 | > 2300 nM |
| B35 | > 2300 nM |
| B36 | > 2300 nM |
| B37 | > 2300 nM |
| B38 | > 2300 nM |
| B39 | > 2300 nM |
| B40 | > 2300 nM |
| B41 | > 2300 nM |
| B42 | 6.34 nM |
| B43 | > 2300 nM |
| B44 | > 2300 nM |
